Assays:
integrin αvβ3 = target: T1, integrin αvβ3 (human, UniProt P06756 31-1048; P05106 27-788); experiment: flow cytometry on HMVEC-d; dis-Fc binding with 5-8 fold excess mAb LM609 (competitor) vs control mAb
T1 construct: whole, on cells; Native integrin on primary human dermal microvascular endothelial cells (HMVEC-d); also called CD51/61
Procedure: (§1) Prior to performing binding studies, HMVEC-d were removed from culture vessels using trypsin-EDTA. The cells were washed in media containing serum and resuspended in binding medium which consisted of PBS containing 1 mM Ca2+, 1 mM Mg2+ and 0.5 mM Mn2+, 0.1% sodium azide, 10% Normal goat serum, 2% rabbit serum and 2% fetal bovine serum.
(§2) One hundred microliters of cell suspension, containing 200,000 to 500,000 HMVEC-d, were added to 12×75 mm plastic test tubes. Monoclonal antibodies specific for one of the integrins, or a control monoclonal antibody (CD29 or M15), were added to the cell suspensions at a concentration of 100 μg/ml (5-8 fold mass excess) 15 minutes prior to addition of disintegrin-Fc fusion proteins. ADAM disintegrin-Fc polypeptides and control Fc fusion polypeptides (P7.5II.Fc) were added, at various concentrations from 12.5 to 20 μg/ml, to the cell suspensions and incubated for 1 hour at 30° C. Unbound Fc polypeptides were washed away by centrifugation of cells in 2 mls of binding media. The washed cell pellets were resuspended in binding medium and then incubated at 30° C. for 30 minutes with goat anti-human Fc-specific biotinylated antibody at a concentration of 2.5 μg/ml for 30 minutes. After centrifugation and washing of the cell pellets, the cells were resuspended in binding medium and bound anti-human Fc-biotin was detected by adding streptavidin-phycoerythrin conjugate to the cell suspension at a 1:1000 dilution (1 μg/ml) and incubating at 30° C. for 30 minutes. The unbound streptavidin-phycoerythrin was washed away and the cells were resuspended in binding medium containing propidum iodide. The level of fluorescent binding (disintegrin-Fc binding) was determined by flow cytometry.
(§3) The level of binding of each ADAM disintegrin-Fc polypeptide was determined in the presence of anti-integrin specific mAb and in the presence of control mAb. Both the intensity of binding (MFI) and the percentage of cells binding were determined. Percent inhibition was calculated using the formula [1-(MFI control-MFI integrin mAb)/MFI control.

integrin α5β1 = target: T2, integrin α5β1 (human, UniProt P08648 42-1049; P05556 21-798); experiment: flow cytometry on HMVEC-d; dis-Fc binding with 5-8 fold excess mAb SAM-1 (competitor) vs control mAb
T2 construct: whole, on cells; Native integrin on HMVEC-d; also called CD49e
Procedure: as §1, §2, §3

B1: ADAM-15dis-Fc (Fc fusion)
chain: TSCGNMFVEPGEQCDCGFLDDCVDPCCDSLTCQLRPGAQCASDGPCCQNCQLRPSGWQCRPTRGDCDLPEFCPGDSSQCPPDVSLGDGEPCAGGQAVCMHGRCASYAQQCQSLWGPGAQPAAPLCLQTANTRGNAFGSCGRNPSGSYVSCTPRDAICGQLQCQTGRTQPLLGSIRDLLWETIDVNGTELNCSWVHLDLGSDVAQPLLTLPGTACGPGLVCIDHRCQRVDLLGAQECRSKCHGHGVCDSNRHCYCEEGWAPPDCTTQLKATSSRSCDKTHTCPPCPAPEAEGAPSVFLFPPKPKDTLMISRTPEVTCVVVDVSHEDPEVKFNWYVDGVEVHNAKTKPREEQYNSTYRVVSVLTVLHQDWLNGKEYKCKVSNKALPAPIEKTISKAKGQPREPQVYTLPPSREEMTKNQVSLTCLVKGFYPSDIAVEWESNGQPENNYKTTPPVLDSDGSFFLYSKLTVDKSRWQQGNVFSCSVMHEALHNHYTQKSLSLSPGK
notes: also called ADAM-15 disintegrin-Fc polypeptide
- percent inhibition of binding (integrin αvβ3): 60%
- percent inhibition of binding (integrin α5β1): 30%

B2: ADAM-20dis-Fc (Fc fusion)
chain: TSCGNLVVEEGEECDCGTIRQCAKDPCCLLNCTLHPGAACAFGICCKDCKFLPSGTLCRQQVGECDLPEWCNGTSHQCPDDVYVQDGISCNVNAFCYEKTCNNHDIQCKEIFGQDARSASQSCYQEINTQGNRFGHCGIVGTTYVKCWTPDIMCGRVQCENVGVIPNLIEHSTVQQFHLNDTTCWGTDYHLGMAIPDIGEVKDGTVCGPEKICIRKKCASMVHLSQACQPKTCNMRGICNNKQHCHCNHEWAPPYCKDKGYGGSADSGPPPKNNMEGLNVMGKLRGSCDKTHTCPPCPAPEAEGAPSVFLFPPKPKDTLMISRTPEVTCVVVDVSHEDPEVKFNWYVDGVEVHNAKTKPREEQYNSTYRVVSVLTVLHQDWLNGKEYKCKVSNKALPAPIEKTISKAKGQPREPQVYTLPPSRDELTKNQVSLTCLVKGFYPSDIAVEWESNGQPENNYKTTPPVLDSDGSFFLYSKLTVDKSRWQQGNVFSCSVMHEALHNHYTQKSLSLSPGK
notes: also called ADAM-20 disintegrin-Fc polypeptide
- percent inhibition of binding (integrin αvβ3): 58%

B3: ADAM-21dis-Fc (Fc fusion)
chain: TSCGNGVVEREEQCDCGSVQQCEQDACCLLNCTLRPGAACAFGLCCKDCKFMPSGELCRQEVNECDLPEWCNGTSHQCPEDRYVQDGIPCSDSAYCYQKRCNNHDQHCREIFGKDAKSASQNCYKEINSQGNRFGHCGINGTTYLKCHISDVFCGRVQCENVRDIPLLQDHFTLQHTHINGVTCWGIDYHLRMNISDIGEVKDGTVCGPGKICIHKKCVSLSVLSHVCLPETCNMKGICNNKHHCHCGYGWSPPYCQHRGYGGSIDSGPASAKRSCDKTHTCPPCPAPEAEGAPSVFLFPPKPKDTLMISRTPEVTCVVVDVSHEDPEVKFNWYVDGVEVHNAKTKPREEQYNSTYRVVSVLTVLHQDWLNGKEYKCKVSNKALPAPIEKTISKAKGQPREPQVYTLPPSRDELTKNQVSLTCLVKGFYPSDIAVEWESNGQPENNYKTTPPVLDSDGSFFLYSKLTVDKSRWQQGNVFSCSVMHEALHNHYTQKSLSLSPGK
notes: also called ADAM-21 disintegrin-Fc polypeptide
- percent inhibition of binding (integrin α5β1): 54%

B4: ADAM-17dis-Fc (Fc fusion)
chain: TSCGNSRVDEGEECDPGIMYLNNDTCCNSDCTLKEGVQCSDRNSPCCKNCQFETAQKKCQEAINATCKGVSYCTGNSSECPPPGNAEDDTVCLDLGKCKDGKCIPFCEREQQLESCACNETDNSCKVCCRDLSGRCVPYVDAEQKNLFLRKGKPCTVGFCDMNGKCEKRVQDVIERFWDFIDQLSINTFGKFLADNRSCDKTHTCPPCPAPEAEGAPSVFLFPPKPKDTLMISRTPEVTCVVVDVSHEDPEVKFNWYVDGVEVHNAKTKPREEQYNSTYRVVSVLTVLHQDWLNGKEYKCKVSNKALPAPIEKTISKAKGQPREPQVYTLPPSRDELTKNQVSLTCLVKGFYPSDIAVEWESNGQPENNYKTTPPVLDSDGSFFLYSKLTVDKSRWQQGNVFSCSVMHEALHNHYTQKSLSLSPGK
notes: also called ADAM-17 disintegrin-Fc polypeptide
- percent inhibition of binding (integrin αvβ3): 50%

B5: ADAM-22dis-Fc (Fc fusion)
chain: TSCGNGFIETGEECDCGTPAECVLEGAECCKKCTLTQDSQCSDGLCCKKCKFQPMGTVCREAVNDCDIRETCSGNSSQCAPNIHKMDGYSCDGVQGICFGGRCKTRDRQCKYIWGQKVTASDKYCYEKLNIEGTEKGNCGKDKDTWIQCNKRDVLCGYLLCTNIGNIPRLGELDGEITSTLVVQQGRTLNCSGGHVKLEEDVDLGYVEDGTPCGPQMMCLEHRCLPVASFNFSTCLSSKEGTICSGNGVCSNELKCVCNRHWIGSDCNTYFPHNDDAKTGITLSGNGVAGTNGSCDKTHTCPPCPAPEAEGAPSVFLFPPKPKDTLMISRTPEVTCVVVDVSHEDPEVKFNWYVDGVEVHNAKTKPREEQYNSTYRVVSVLTVLHQDWLNGKEYKCKVSNKALPAPIEKTISKAKGQPREPQVYTLPPSRDELTKNQVSLTCLVKGFYPSDIAVEWESNGQPENNYKTTPPVLDSDGSFFLYSKLTVDKSRWQQGNVFSCSVMHEALHNHYTQKSLSLSPGK
notes: also called ADAM-22 disintegrin-Fc polypeptide
- percent inhibition of binding (integrin αvβ3): 42%
- percent inhibition of binding (integrin α5β1): 36%

B6: ADAM-23dis-Fc (Fc fusion)
chain: TSCGNGYVEAGEECDCGFHVECYGLCCKKCSLSNGAHCSDGPCCNNTSCLFQPRGYECRDAVNECDITEYCTGDSGQCPPNLHKQDGYACNQNQGRCYNGECKARDNQCQYIWGTKAAGSDKFCYEKLNTEGTEKGNCGKDGDRWIQCSKHDVFCGFLLCTNLTRAPRIGQLQGEIIPTSFYHQGRVIDCSGAHVVLDDDTDVGYVEDGTPCGPSMMCLDRKCLQIQALNMSSCPLDSKGKVCSGHGVCSNEATCICDFTWAGTDCSIRDPVRNLHPPKDEGPKGPSATNRSCDKTHTCPPCPAPEAEGAPSVFLFPPKPKDTLMISRTPEVTCVVVDVSHEDPEVKFNWYVDGVEVHNAKTKPREEQYNSTYRVVSVLTVLHQDWLNGKEYKCKVSNKALPAPIEKTISKAKGQPREPQVYTLPPSRDELTKNQVSLTCLVKGFYPSDIAVEWESNGQPENNYKTTPPVLDSDGSFFLYSKLTVDKSRWQQGNVFSCSVMHEALHNHYTQKSLSLSPGK
notes: also called ADAM-23 disintegrin-Fc polypeptide
- percent inhibition of binding (integrin α5β1): 49%

— patent US20020042368A1 (IMMUNEX, published 2002)
